According to the supplement of paper PMC9112550, “Optimization of the antimicrobial peptide Bac7 by deep mutational scanning” (BMC Biology, 2022):

tested on: Escherichia coli TOP10; experiment: shrunken log2 fold change of peptide-encoding DNA abundance (4.5 h post-induction vs induction); higher = less antimicrobial activity (less host growth inhibition); details: time post-induction: 4.5 h; library: site-saturation at positions 5, 18, 19, 20
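Further: peptides expressed intracellularly from a pBAD plasmid library in pooled LB shake-flask culture, induced with 0.3% L-arabinose, DNA abundance read by NGS, three biological replicates, DESeq2 with apeglm shrinkage.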

| Sequence | shrunken log2 fold change |
| --- | --- |
| RRIRSRPPRLPRPRPRPKNKPRP | -0.242 |
| RRIRPRPPRLPRPRPRPHGNPRP | -0.654 |
| RRIRDRPPRLPRPRPRPMLNPRP | 0.21 |
| RRIRDRPPRLPRPRPRPRVWPRP | 0.352 |
| RRIRWRPPRLPRPRPRPQMHPRP | 0.0794 |
| RRIRRRPPRLPRPRPRPSNNPRP | -0.303 |
| RRIRMRPPRLPRPRPRPEPFPRP | 0.427 |
| RRIRGRPPRLPRPRPRPEIGPRP | 1.92 |
| RRIRGRPPRLPRPRPRPFEIPRP | -0.017 |
| RRIRMRPPRLPRPRPRPPFWPRP | 1.2 |
| RRIRNRPPRLPRPRPRPRFVPRP | -0.384 |
| RRIRIRPPRLPRPRPRPHASPRP | -0.012 |
| RRIRLRPPRLPRPRPRPSWRPRP | 0.276 |
| RRIRHRPPRLPRPRPRPEYFPRP | -0.0339 |
| RRIRSRPPRLPRPRPRPPTIPRP | 0.0521 |
| RRIRNRPPRLPRPRPRPVHNPRP | -0.289 |
| RRIRHRPPRLPRPRPRPALTPRP | 0.0729 |
| RRIRDRPPRLPRPRPRPQVAPRP | 0.166 |
| RRIRKRPPRLPRPRPRPTNDPRP | 0.191 |
| RRIRMRPPRLPRPRPRPYLTPRP | -0.268 |
| RRIRQRPPRLPRPRPRPMDYPRP | -0.0062 |
| RRIRVRPPRLPRPRPRPAWTPRP | -0.0585 |
| RRIRARPPRLPRPRPRPRMWPRP | 0.164 |

| Sequence | shrunken log2 fold change |
| --- | --- |
| RRIRYRPPRLPRPRPRPTYYPRP | -1.21 |
| RRIRIRPPRLPRPRPRPKLAPRP | -0.117 |
| RRIRDRPPRLPRPRPRPLFNPRP | -0.375 |
| RRIRARPPRLPRPRPRPDRLPRP | -0.0424 |
| RRIRARPPRLPRPRPRPNQCPRP | -0.176 |
| RRIRSRPPRLPRPRPRPMCFPRP | -0.149 |
| RRIRIRPPRLPRPRPRPKILPRP | -0.0568 |
| RRIRTRPPRLPRPRPRPPRQPRP | 0.52 |
| RRIRTRPPRLPRPRPRPHRGPRP | -0.154 |
| RRIRFRPPRLPRPRPRPPAQPRP | 1.02 |
| RRIRVRPPRLPRPRPRPTVNPRP | -0.171 |
| RRIRQRPPRLPRPRPRPQIQPRP | -0.411 |
| RRIRIRPPRLPRPRPRPASQPRP | -0.073 |
| RRIRLRPPRLPRPRPRPHHNPRP | -0.547 |
| RRIRNRPPRLPRPRPRPLKDPRP | -0.0618 |
| RRIRIRPPRLPRPRPRPCSSPRP | 0.00235 |
| RRIRLRPPRLPRPRPRPVRYPRP | -0.162 |
| RRIRFRPPRLPRPRPRPKVAPRP | 0.192 |
| RRIRTRPPRLPRPRPRPGNEPRP | -0.000989 |
| RRIRFRPPRLPRPRPRPAIMPRP | -0.225 |
| RRIRARPPRLPRPRPRPGPTPRP | 0.574 |
| RRIRVRPPRLPRPRPRPLLLPRP | -0.52 |
| RRIRPRPPRLPRPRPRPANAPRP | 0.0662 |

| Sequence | shrunken log2 fold change |
| --- | --- |
| RRIRWRPPRLPRPRPRPPIYPRP | 0.0337 |
| RRIRFRPPRLPRPRPRPYRDPRP | -0.0081 |
| RRIRHRPPRLPRPRPRPFRKPRP | 0.00884 |
| RRIRYRPPRLPRPRPRPRQRPRP | 0.194 |
| RRIRFRPPRLPRPRPRPFCAPRP | -0.102 |
| RRIRRRPPRLPRPRPRPWLYPRP | 0.0161 |
| RRIRCRPPRLPRPRPRPDGVPRP | 0.125 |
| RRIRVRPPRLPRPRPRPACWPRP | 0.517 |
| RRIRMRPPRLPRPRPRPTTYPRP | 0.0427 |
| RRIRIRPPRLPRPRPRPLADPRP | -0.0519 |
| RRIRARPPRLPRPRPRPWNCPRP | 0.132 |
| RRIRYRPPRLPRPRPRPHSRPRP | -0.103 |
| RRIRCRPPRLPRPRPRPPLQPRP | 0.228 |
| RRIRDRPPRLPRPRPRPYFHPRP | -0.678 |
| RRIRRRPPRLPRPRPRPHDFPRP | 0.103 |
| RRIRHRPPRLPRPRPRPEQLPRP | -0.0602 |
| RRIRQRPPRLPRPRPRPPELPRP | 0.109 |
| RRIRQRPPRLPRPRPRPVWQPRP | 0.232 |
| RRIRERPPRLPRPRPRPVHKPRP | -0.581 |
| RRIRSRPPRLPRPRPRPCVPPRP | -0.0369 |
| RRIRHRPPRLPRPRPRPCDNPRP | -0.207 |
| RRIRGRPPRLPRPRPRPNNMPRP | -0.317 |
| RRIRARPPRLPRPRPRPCELPRP | 0.105 |

| Sequence | shrunken log2 fold change |
| --- | --- |
| RRIRRRPPRLPRPRPRPCVVPRP | 0.152 |
| RRIRCRPPRLPRPRPRPTAAPRP | 1.33 |
| RRIRGRPPRLPRPRPRPYMNPRP | -0.23 |
| RRIRKRPPRLPRPRPRPRYQPRP | -0.0143 |
| RRIRSRPPRLPRPRPRPVGGPRP | 0.433 |
| RRIRIRPPRLPRPRPRPNSEPRP | -0.686 |
| RRIRQRPPRLPRPRPRPRMGPRP | -0.0719 |
| RRIRKRPPRLPRPRPRPEIMPRP | 1.31 |
| RRIRDRPPRLPRPRPRPADNPRP | -0.0897 |
| RRIRGRPPRLPRPRPRPGGNPRP | 0.0695 |
| RRIRERPPRLPRPRPRPWCLPRP | -0.746 |
| RRIRRRPPRLPRPRPRPAPQPRP | 1.39 |
| RRIRYRPPRLPRPRPRPAWVPRP | 0.0366 |
| RRIRMRPPRLPRPRPRPTTQPRP | 0.081 |
| RRIRHRPPRLPRPRPRPNHPPRP | -0.254 |
| RRIRQRPPRLPRPRPRPFCKPRP | -0.0799 |
| RRIRKRPPRLPRPRPRPAEYPRP | 0.345 |
| RRIRVRPPRLPRPRPRPADLPRP | 0.0387 |
| RRIRMRPPRLPRPRPRPGAQPRP | 1.24 |
| RRIRRRPPRLPRPRPRPMCYPRP | -0.069 |
| RRIRQRPPRLPRPRPRPLVHPRP | -0.203 |
| RRIRARPPRLPRPRPRPHQCPRP | -0.0483 |
